# Laboratory results published in ChEMBL document CHEMBL2074046, “Selectivity of the polyspecific cation transporter rOCT1 is changed by mutation of aspartate 475 to glutamate” (Mol Pharmacol, 1999).
# B1: Solute carrier family 22 member 1 (Rattus norvegicus) (protein)
# chain: MPTVDDVLEQVGEFGWFQKQAFLLLCLISASLAPIYVGIVFLGFTPGHYCQNPGVAELSQRCGWSQAEELNYTVPGLGPSDEASFLSQCMRYEVDWNQSTLDCVDPLSSLVANRSQLPLGPCEHGWVYDTPGSSIVTEFNLVCGDAWKVDLFQSCVNLGFFLGSLVVGYIADRFGRKLCLLVTTLVTSVSGVLTAVAPDYTSMLLFRLLQGMVSKGSWVSGYTLITEFVGSGYRRTTAILYQMAFTVGLVGLAGVAYAIPDWRWLQLAVSLPTFLFLLYYWFVPESPRWLLSQKRTTRAVRIMEQIAQKNGKVPPADLKMLCLEEDASEKRSPSFADLFRTPNLRKHTVILMYLWFSCAVLYQGLIMHVGATGANLYLDFFYSSLVEFPAAFIILVTIDRIGRIYPIAASNLVTGAACLLMIFIPHELHWLNVTLACLGRMGATIVLQMVCLVNAELYPTFIRNLGMMVCSALCDLGGIFTPFMVFRLMEVWQALPLILFGVLGLTAGAMTLLLPETKGVALPETIEEAENLGRRKSKAKENTIYLQVQTGKSSST
# How the values were obtained:
# [1] = molecular target: T1, Solute carrier family 22 member 1 (Rattus norvegicus, UniProt Q63089)
# T1 sequence (Q63089 whole entry): B1 chain
# [2] = molecular target: T1, Solute carrier family 22 member 1; experiment: TP_TRANSPORTER: inhibition of MPP+ uptake (MPP+: 0.1 uM) in OCT1-expressing HEK293 cells; format: functional, cell-based
# [3] = substrate: C[n+]1ccc(-c2ccccc2)cc1; experiment: (§1) TP_TRANSPORTER: uptake in Xenopus laevis oocytes; format: functional, cell-based, Oocyte
# [4] = substrate: CNC(=O)c1cccnc1; experiment: as §1; format: functional, cell-based, Oocyte
# [5] = substrate: C[N+](C)(C)CCO; experiment: cells, lysate or membranes named
# [6] = substrate: CC[N+](CC)(CC)CC; experiment: cells, lysate or membranes named
# [7] = substrate: C[n+]1ccc(-c2ccccc2)cc1; experiment: TP_TRANSPORTER: uptake in OCT1-expressing HEK293 cells; format: functional, cell-based
molecule,measurement,setting,value
CCCC[N+](CCCC)(CCCC)CCCC [TETRABUTHYLAMMONIUM],IC50,[1],3000 nM
CCCCC[N+](CCCCC)(CCCCC)CCCCC [TETRAPENTYLAMMONIUM],IC50,[2],180 nM
B1,Km,[3],2.7 µM
same,Km,[4],126 µM
same,Km,[5],370 µM
same,Km,[6],129 µM
same,Km,[7],9.4 µM
